The supplement of paper PMC3353916
± gives the standard deviation of the averaged measurements.

System: Sindbis virus TE/5'2J-GFP
Assay: percent infected (GFP+ in RFP+ ISG-expressing cells); higher = more infection (less antiviral activity)
Protocol: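 Confirmatory testing of 87 ISGs. Triplicate wells of BHK/HA-Zeo (control) or BHK/NZAP-Zeo (ZAP) cells were transduced with lentiviruses co-expressing a human ISG plus TagRFP, then infected 48 h later with SINV TE/5'2J-GFP (moi 5). The % GFP+ cells among RFP+ cells was measured by flow cytometry at 8 h post infection. Fluc lentivirus served as control. Three independent experiments.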

[1] = experiment: confirmatory screen 1, BHK/HA-Zeo (control)
[2] = experiment: confirmatory screen 1, BHK/NZAP-Zeo (ZAP)
[3] = experiment: confirmatory screen 2, BHK/HA-Zeo (control)
[4] = experiment: confirmatory screen 2, BHK/NZAP-Zeo (ZAP)
[5] = experiment: confirmatory screen 3, BHK/HA-Zeo (control)
[6] = experiment: confirmatory screen 3, BHK/NZAP-Zeo (ZAP)
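Further: Interferon-defective BHK-21 derivatives, ZAP line overexpressing the rat ZAP N-terminal zinc finger domain fused to Zeocin resistance, GFP scored within live singlet TagRFP+ cells.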

Row | Substance | percent infected [1] [%] | percent infected [2] [%] | percent infected [3] [%] | percent infected [4] [%] | percent infected [5] [%] | percent infected [6] [%]
1 | ABTB2 | 94.03 ± 0.73 | 63.5 ± 5.5 | 94.02 ± 0.29 | 95.3 ± 0.29 | 93.9 ± 2 | 94.69 ± 0.42
2 | BTN3A3 | 82.3 ± 4 | 57.5 ± 0.65 | 93.48 ± 0.51 | 95.55 ± 0.27 | 90.09 ± 0.83 | 89.4 ± 1.4
3 | ISG20 | 95.82 ± 0.88 | 73.1 ± 2.4 | 96.88 ± 0.17 | 95.24 ± 0.15 | 87 ± 2.5 | 90.59 ± 0.73
4 | MAATEISVLSEQFTKIKELELMPEKGLKEEEKDGVCREKDHRSPSELEAERTSGAFQDSVLEEEVELVLAPSEESEKYILTLQTVHFTSEAVELQDMSLLSIQQQEGVQVVVQQPGPGLLWLEEGPRQSLQQCVAISIQQELYSPQEMEVLQFHALEENVMVASEDSKLAVSLAETTGLIKLEEEQEKNQLLAERTKEQLFFVETMSGDERSDEIVLTVSNSNVEEQEDQPTAGQADAEKAKSTKNQRKTKGAKGTFHCDVCMFTSSRMSSFNRHMKTHTSEKPHLCHLCLKTFRTVTLLRNHVNTHTGTRPYKCNDCNMAFVTSGELVRHRRYKHTHEKPFKCSMCKYASVEASKLKRHVRSHTGERPFQCCQCSYASRDTYKLKRHMRTHSGEKPYECHICHTRFTQSGTMKIHILQKHGENVPKYQCPHCATIIARKSDLRVHMRNLHAYSAAELKCRYCSAVFHERYALIQHQKTHKNEKRFKCKHCSYACKQERHMTAHIRTHTGEKPFTCLSCNKCFRQKQLLNAHFRKYHDANFIPTVYKCSKCGKGFSRWINLHRHSEKCGSGEAKSAASGKGRRTRKRKQTILKEATKGQKEAAKGWKEAANGDEAAAEEASTTKGEQFPGEMFPVACRETTARVKEEVDEGVTCEMLLNTMDK [CTCFL] | 95.5 ± 1.9 | 68 ± 7.4 | 97.4 ± 0.23 | 95.98 ± 0.22 | 88.6 ± 1.2 | 86.4 ± 0.91
5 | MAFF | 92.89 ± 0.73 | 70.1 ± 7.5 | 94.1 ± 0.95 | 93.98 ± 0.15 | 93.24 ± 0.65 | 91.23 ± 0.34
6 | MAGIELERCQQQANEVTEIMRNNFGKVLERGVKLAELQQRSDQLLDMSSTFNKTTQNLAQKKCWENIRYRICVGLVVVGVLLIILIVLLVVFLPQSSDSSSAPRTQDAGIASGPGN [VAMP5] | 97.4 ± 0.76 | 78.6 ± 3.2 | 96.57 ± 0.3 | 94.74 ± 0.23 | 93.95 ± 0.59 | 93.52 ± 0.17
7 | MAGPERWGPLLLCLLQAAPGRPRLAPPQNVTLLSQNFSVYLTWLPGLGNPQDVTYFVAYQSSPTRRRWREVEECAGTKELLCSMMCLKKQDLYNKFKGRVRTVSPSSKSPWVESEYLDYLFEVEPAPPVLVLTQTEEILSANATYQLPPCMPPLDLKYEVAFWKEGAGNKTLFPVTPHGQPVQITLQPAASEHHCLSARTIYTFSVPKYSKFSKPTCFLLEVPEANWAFLVLPSLLILLLVIAAGGVIWKTLMGNPWFQRAKMPRALDFSGHTHPVATFQPSRPESVNDLFLCPQKELTRGVRPTPRVRAPATQQTRWKKDLAEDEEEEDEEDTEDGVSFQPYIEPPSFLGQEHQAPGHSEAGGVDSGRPRAPLVPSEGSSAWDSSDRSWASTVDSSWDRAGSSGYLAEKGPGQGPGGDGHQESLPPPEFSKDSGFLEELPEDNLSSWATWGTLPPEPNLVPGGPPVSLQTLTFCWESSPEEEEEARESEIEDSDAGSWGAESTQRTEDRGRTLGHYMAR [IL28RA] | 11.9 ± 5.4 | 1.35 ± 0.22 | 33 ± 1.4 | 11.4 ± 0.84 | 21.4 ± 1.5 | 8.02 ± 0.72
8 | MALAPERAAPRVLFGEWLLGEISSGCYEGLQWLDEARTCFRVPWKHFARKDLSEADARIFKAWAVARGRWPPSSRGGGPPPEAETAERAGWKTNFRCALRSTRRFVMLRDNSGDPADPHKVYALSRELCWREGPGTDQTEAEAPAAVPPPQGGPPGPFLAHTHAGLQAPGPLPAPAGDKGDLLLQAVQQSCLADHLLTASWGADPVPTKAPGEGQEGLPLTGACAGGPGLPAGELYGWAVETTPSPGPQPAALTTGEAAAPESPHQAEPYLSPSPSACTAVQEPSPGALDVTIMYKGRTVLQKVVGHPSCTFLYGPPDPAVRATDPQQVAFPSPAELPDQKQLRYTEELLRHVAPGLHLELRGPQLWARRMGKCKVYWEVGGPPGSASPSTPACLLPRNCDTPIFDFRVFFQELVEFRARQRRGSPRYTIYLGFGQDLSAGRPKEKSLVLVKLEPWLCRVHLEGTQREGVSSLDSSSLSLCLSSANSLYDDIECFLMELEQPA [IRF7] | 72 ± 5.6 | 7.66 ± 2.9 | 95.59 ± 0.13 | 92 ± 0.75 | 69.3 ± 3.4 | 32.8 ± 18
9 | MALEIHMSDPMCLIENFNEQLKVNQEALEILSAITQPVVVVAIVGLYRTGKSYLMNKLAGKNKGFSVASTVQSHTKGIWIWCVPHPNWPNHTLVLLDTEGLGDVEKADNKNDIQIFALALLLSSTFVYNTVNKIDQGAIDLLHNVTELTDLLKARNSPDLDRVEDPADSASFFPDLVWTLRDFCLGLEIDGQLVTPDEYLENSLRPKQGSDQRVQNFNLPRLCIQKFFPKKKCFIFDLPAHQKKLAQLETLPDDELEPEFVQQVTEFCSYIFSHSMTKTLPGGIMVNGSRLKNLVLTYVNAISSGDLPCIENAVLALAQRENSAAVQKAIAHYDQQMGQKVQLPMETLQELLDLHRTSEREAIEVFMKNSFKDVDQSFQKELETLLDAKQNDICKRNLEASSDYCSALLKDIFGPLEEAVKQGIYSKPGGHNLFIQKTEELKAKYYREPRKGIQAEEVLQKYLKSKESVSHAILQTDQALTETEKKKKEAQVKAEAEKAEAQRLAAIQRQNEQMMQERERLHQEQVRQMEIAKQNWLAEQQKMQEQQMQEQAAQLSTTFQAQNRSLLSELQHAQRTVNNDDPCVLL [GBP5] | 95.4 ± 1.4 | 60 ± 5.7 | 97.28 ± 0.17 | 96.34 ± 0.093 | 87.3 ± 1.1 | 86.3 ± 0.93
10 | MALLDVCGAPRGQRPESALPVAGSGRRSDPGHYSFSMRSPELALPRGMQPTEFFQSLGGDGERNVQIEMAHGTTTLAFKFQHGVIAAVDSRASAGSYISALRVNKVIEINPYLLGTMSGCAADCQYWERLLAKECRLYYLRNGERISVSAASKLLSNMMCQYRGMGLSMGSMICGWDKKGPGLYYVDEHGTRLSGNMFSTGSGNTYAYGVMDSGYRPNLSPEEAYDLGRRAIAYATHRDSYSGGVVNMYHMKEDGWVKVESTDVSDLLHQYREANQ [PSMB8] | 94.7 ± 1.4 | 64.8 ± 5.2 | 95.27 ± 0.2 | 94.97 ± 0.39 | 94.16 ± 0.23 | 94.18 ± 0.46
11 | MALLLALSLLVLWTSPAPTLSGTNDAEDCCLSVTQKPIPGYIVRNFHYLLIKDGCRVPAVVFTTLRGRQLCAPPDQPWVERIIQRLQRTSAKMKRRSS [CCL19] | 95.7 ± 1.2 | 81.5 ± 1.8 | 95.5 ± 0.73 | 95.12 ± 0.1 | 92.83 ± 0.53 | 92.52 ± 0.47
12 | MAPEINLPGPMSLIDNTKGQLVVNPEALKILSAITQPVVVVAIVGLYRTGKSYLMNKLAGKKNGFSLGSTVKSHTKGIWMWCVPHPKKPEHTLVLLDTEGLGDIEKGDNENDSWIFALAILLSSTFVYNSMGTINQQAMDQLHYVTELTDRIKANSSPGNNSVDDSADFVSFFPAFVWTLRDFTLELEVDGEPITADDYLELSLKLRKGTDKKSKSFNDPRLCIRKFFPKRKCFVFDWPAPKKYLAHLEQLKEEELNPDFIEQVAEFCSYILSHSNVKTLSGGIPVNGPRLESLVLTYVNAISSGDLPCMENAVLALAQIENSAAVEKAIAHYEQQMGQKVQLPTETLQELLDLHRDSEREAIEVFMKNSFKDVDQMFQRKLGAQLEARRDDFCKQNSKASSDCCMALLQDIFGPLEEDVKQGTFSKPGGYRLFTQKLQELKNKYYQVPRKGIQAKEVLKKYLESKEDVADALLQTDQSLSEKEKAIEVERIKAESAEAAKKMLEEIQKKNEEMMEQKEKSYQEHVKQLTEKMERDRAQLMAEQEKTLALKLQEQERLLKEGFENESKRLQKDIWDIQMRSKSLEPICNIL [GBP2] | 96.3 ± 0.94 | 80.8 ± 0.62 | 94.84 ± 0.44 | 95.94 ± 0.23 | 93.28 ± 0.57 | 94.23 ± 0.41
